Measured values reported in patent US20190040102A1 (CDRD VENTURES, published 2019).
Starred links: 1 amine or outer side, 2 acyl side, 3 side chain; linkers in the order of their positions; H or OH if unused. Positions of bridges follow the written chain, without caps; N, C: chain ends. Non-standard residues stand in square brackets, D forms with d. *: point of attachment. Tyr(Me) = 4-OMe-Phe, COc1ccc(C[C@H](N[*:1])C(=O)[*:2])cc1; dPhe(4-CONH2) = NC(=O)c1ccc(C[C@@H](N)C(=O)O)cc1; dTyr(Me) = COc1ccc(C[C@@H](N[*:1])C(=O)[*:2])cc1; Phe(4-Cl) = N[C@@H](Cc1ccc(Cl)cc1)C(=O)O; dPhe(4-Cl) = N[C@H](Cc1ccc(Cl)cc1)C(=O)O; Bz = O=C(c1ccccc1)*; βAla = NCCC(=O)O

B1: Compound 44: H-Cpa-cyclo[DCys-Tyr-D-(4-carbamoyl)Phe-Lys-Thr-Cys]-4-OMe-D-Phe-NH2 (peptide)
peptide: H-[Phe(4-Cl)][dC]Y[dPhe(4-CONH2)]KTC[dTyr(Me)]-NH2
modifications: disulfide 2-7
SMILES: COc1ccc(C[C@@H](NC(=O)[C@@H]2CSSC[C@@H](NC(=O)[C@@H](N)Cc3ccc(Cl)cc3)C(=O)N[C@@H](Cc3ccc(O)cc3)C(=O)N[C@H](Cc3ccc(C(N)=O)cc3)C(=O)N[C@@H](CCCCN)C(=O)N[C@@H]([C@@H](C)O)C(=O)N2)C(N)=O)cc1
B2: Compound 49: H-βAla-Cpa-cyclo[DCys-Tyr-DPhe(4-CONH2)-Lys(Me)-Thr-Cys]-DTyr-NH2 (peptide)
peptide: H-[βAla][Phe(4-Cl)][dC]Y[dPhe(4-CONH2)]K(Me)TC[dY]-NH2
modifications: disulfide 3-8
SMILES: CNCCCC[C@@H]1NC(=O)[C@@H](Cc2ccc(C(N)=O)cc2)NC(=O)[C@H](Cc2ccc(O)cc2)NC(=O)[C@H](NC(=O)[C@H](Cc2ccc(Cl)cc2)NC(=O)CCN)CSSC[C@@H](C(=O)N[C@H](Cc2ccc(O)cc2)C(N)=O)NC(=O)[C@H]([C@@H](C)O)NC1=O
B3: Compound 47: H-Cpa-cyclo[D-Cys-Cpa-D-Phe(4-carbamoyl)-Lys(Nε-Me)-Thr-Cys]-D-Cpa-NH2 (peptide)
peptide: H-[Phe(4-Cl)][dC][Phe(4-Cl)][dPhe(4-CONH2)]K(Me)TC[dPhe(4-Cl)]-NH2
modifications: disulfide 2-7
SMILES: CNCCCC[C@@H]1NC(=O)[C@@H](Cc2ccc(C(N)=O)cc2)NC(=O)[C@H](Cc2ccc(Cl)cc2)NC(=O)[C@H](NC(=O)[C@@H](N)Cc2ccc(Cl)cc2)CSSC[C@@H](C(=O)N[C@H](Cc2ccc(Cl)cc2)C(N)=O)NC(=O)[C@H]([C@@H](C)O)NC1=O
B4: Compound 48: H-Cpa-cyclo[D-Cys-Cpa-D-Phe(4-carbamoyl)-Lys(Nε-Me)-Thr-Cys]-D-Tyr-NH2 (peptide)
peptide: H-[Phe(4-Cl)][dC][Phe(4-Cl)][dPhe(4-CONH2)]K(Me)TC[dY]-NH2
modifications: disulfide 2-7
SMILES: CNCCCC[C@@H]1NC(=O)[C@@H](Cc2ccc(C(N)=O)cc2)NC(=O)[C@H](Cc2ccc(Cl)cc2)NC(=O)[C@H](NC(=O)[C@@H](N)Cc2ccc(Cl)cc2)CSSC[C@@H](C(=O)N[C@H](Cc2ccc(O)cc2)C(N)=O)NC(=O)[C@H]([C@@H](C)O)NC1=O
B5: Compound 9: H-Cpa-cyclo[DCys-Tyr-D-4-(Gly-Ac)Aph-Lys-Thr-Cys]-DTyr-NH2 (peptide)
peptide: XXYXKTCX
HELM: PEPTIDE1{[N[C@@H](Cc1ccc(Cl)cc1)C(=O)[*:2]].[dC].Y.[O=C([C@@H](Cc1ccc(N[*:3])cc1)N[*:1])[*:2]].K.T.C.[dY].[am]}|PEPTIDE2{[ac].G}$PEPTIDE1,PEPTIDE2,4:R3-2:R2|PEPTIDE1,PEPTIDE1,2:R3-7:R3$$$V2.0
SMILES: CC(=O)NCC(=O)Nc1ccc(C[C@H]2NC(=O)[C@H](Cc3ccc(O)cc3)NC(=O)[C@H](NC(=O)[C@@H](N)Cc3ccc(Cl)cc3)CSSC[C@@H](C(=O)N[C@H](Cc3ccc(O)cc3)C(N)=O)NC(=O)[C@H]([C@@H](C)O)NC(=O)[C@H](CCCCN)NC2=O)cc1
B6: Compound 45: H-Cpa-cyclo[DCys-4-OMe-Phe-D-(4-carbamoyl)Phe-Lys-Thr-Cys]-4-OMe-D-Phe-NH2 (peptide)
peptide: H-[Phe(4-Cl)][dC][Tyr(Me)][dPhe(4-CONH2)]KTC[dTyr(Me)]-NH2
modifications: disulfide 2-7
SMILES: COc1ccc(C[C@@H]2NC(=O)[C@H](NC(=O)[C@@H](N)Cc3ccc(Cl)cc3)CSSC[C@@H](C(=O)N[C@H](Cc3ccc(OC)cc3)C(N)=O)NC(=O)[C@H]([C@@H](C)O)NC(=O)[C@H](CCCCN)NC(=O)[C@@H](Cc3ccc(C(N)=O)cc3)NC2=O)cc1
B7: Compound 50: Ph(CO)NHCH2(CO)-Cpa-cyclo[D-Cys-Tyr-D-Phe(4-carbamoyl)-Lys(Nε-Me)-Thr-Cys]-D-Tyr-NH2 (peptide)
peptide: Bz-G[Phe(4-Cl)][dC]Y[dPhe(4-CONH2)]K(Me)TC[dY]-NH2
modifications: disulfide 3-8
SMILES: CNCCCC[C@@H]1NC(=O)[C@@H](Cc2ccc(C(N)=O)cc2)NC(=O)[C@H](Cc2ccc(O)cc2)NC(=O)[C@H](NC(=O)[C@H](Cc2ccc(Cl)cc2)NC(=O)CNC(=O)c2ccccc2)CSSC[C@@H](C(=O)N[C@H](Cc2ccc(O)cc2)C(N)=O)NC(=O)[C@H]([C@@H](C)O)NC1=O
B8: Compound 46: H-Cpa-cyclo[D-Cys-Tyr-D-Phe(4-carbamoyl)-Lys(Nε-Me)-Thr-Cys]-D-Cpa-NH2 (peptide)
peptide: H-[Phe(4-Cl)][dC]Y[dPhe(4-CONH2)]K(Me)TC[dPhe(4-Cl)]-NH2
modifications: disulfide 2-7
SMILES: CNCCCC[C@@H]1NC(=O)[C@@H](Cc2ccc(C(N)=O)cc2)NC(=O)[C@H](Cc2ccc(O)cc2)NC(=O)[C@H](NC(=O)[C@@H](N)Cc2ccc(Cl)cc2)CSSC[C@@H](C(=O)N[C@H](Cc2ccc(Cl)cc2)C(N)=O)NC(=O)[C@H]([C@@H](C)O)NC1=O
B9: Compound 8: H-Cpa-cyclo[DCys-Tyr-D-4-(Gly)Aph-Lys-Thr-Cys]-DTyr-NH2 (peptide)
peptide: XXYXKTCX
HELM: PEPTIDE1{[N[C@@H](Cc1ccc(Cl)cc1)C(=O)[*:2]].[dC].Y.[O=C([C@@H](Cc1ccc(N[*:3])cc1)N[*:1])[*:2]].K.T.C.[dY].[am]}|PEPTIDE2{G}$PEPTIDE1,PEPTIDE2,4:R3-1:R2|PEPTIDE1,PEPTIDE1,2:R3-7:R3$$$V2.0
SMILES: C[C@@H](O)[C@@H]1NC(=O)[C@H](CCCCN)NC(=O)[C@@H](Cc2ccc(NC(=O)CN)cc2)NC(=O)[C@H](Cc2ccc(O)cc2)NC(=O)[C@H](NC(=O)[C@@H](N)Cc2ccc(Cl)cc2)CSSC[C@@H](C(=O)N[C@H](Cc2ccc(O)cc2)C(N)=O)NC1=O

Biological target: somatostatin receptor type 2 (SSTR2) (UniProt P30874 1-369)
Test: cell-based or functional assay

Sequence of somatostatin receptor type 2 (SSTR2) (P30874 whole entry): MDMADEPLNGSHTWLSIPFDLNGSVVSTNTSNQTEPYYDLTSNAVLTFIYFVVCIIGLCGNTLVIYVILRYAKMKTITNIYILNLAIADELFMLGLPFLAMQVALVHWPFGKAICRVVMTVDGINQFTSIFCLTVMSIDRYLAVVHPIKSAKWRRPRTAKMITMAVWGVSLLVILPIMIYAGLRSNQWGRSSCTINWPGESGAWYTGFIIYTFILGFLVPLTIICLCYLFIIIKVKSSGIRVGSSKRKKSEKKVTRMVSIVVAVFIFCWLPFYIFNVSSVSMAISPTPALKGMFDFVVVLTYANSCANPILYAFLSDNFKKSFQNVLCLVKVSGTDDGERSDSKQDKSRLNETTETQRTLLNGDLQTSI

Binder	IC50 (PathHunter β-Arrestin, antagonist mode) [nM]
B1	10.7
{3,3‑dimethylbutanoyl}-[Phe(4-Cl)][dC]Y[dPhe(4-CONH2)]K(Me)TC[dY]-NH2 (disulfide 2-7) [Compound 52: t-BuCH2(CO)-Cpa-cyclo[D-Cys-Tyr-D-Phe(4-carbamoyl)-Lys(Nε-Me)-Thr-Cys]-D-Tyr-NH2]	1.73
B2	2.86
B3	1.51
B4	1.31
H-[Phe(4-Cl)][dC]Y[dAph(2-(4-morpholinyl)ethyl)]KTC[dY]-NH2 (disulfide 2-7) [Compound 11: H-Cpa-cyclo[DCys-Tyr-D-4-(2-(4-morpholinyl)ethyl)Aph-Lys-Thr-Cys]-DTyr-NH2]	243
B5	104
B6	14.6
H-[Phe(4-Cl)][dC]Y[dAph(Pro)]KTC[dY]-NH2 (disulfide 2-7) [Compound 10: H-Cpa-cyclo[DCys-Tyr-D-4-(Pro)Aph-Lys-Thr-Cys]-DTyr-NH2]	> 1000
H-[Phe(4-Cl)][dC]Y[dPhe(4-acetamidomethyl)]KTC[dY]-NH2 (disulfide 2-7) [Compound 6: H-Cpa-cyclo[DCys-Tyr-D-(4-acetamidomethyl)Phe-Lys-Thr-Cys]-DTyr-NH2]	166
B7	1.11
H-[Phe(4-Cl)][dC]Y[dPhe(4-aminomethyl)]KTC[dY]-NH2 (disulfide 2-7) [Compound 5: H-Cpa-cyclo[DCys-Tyr-D-(4-aminomethyl)Phe-Lys-Thr-Cys]-DTyr-NH2]	213
B8	0.398
B9	84
{2‑(phenylsulfonyl)acetyl}-[Phe(4-Cl)][dC]Y[dPhe(4-CONH2)]K(Me)TC[dY]-NH2 (disulfide 2-7) [Compound 51: PhSO2CH2(CO)-Cpa-cyclo[D-Cys-Tyr-D-Phe(4-carbamoyl)-Lys(Nε-Me)-Thr-Cys]-D-Tyr-NH2]	1.45
picolinoyl-[Phe(4-Cl)][dC]Y[dPhe(4-CONH2)]K(Me)TC[dY]-NH2 (disulfide 2-7) [Compound 53: 2-Pyridyl(CO)-Cpa-cyclo[D-Cys-Tyr-D-Phe(4-carbamoyl)-Lys(Nε-Me)-Thr-Cys]-D-Tyr-NH2]	4.28
succinamoyl-[Phe(4-Cl)][dC]Y[dPhe(4-CONH2)]K(Me)TC[dY]-NH2 (disulfide 2-7) [Compound 54: H2N(CO)(CH2)2(CO)-Cpa-cyclo[D-Cys-Tyr-D-Phe(4-carbamoyl)-Lys(Nε-Me)-Thr-Cys]-D-Tyr-NH2]	2.33

Biological target: somatostatin receptor SSTR3 (UniProt P32745 1-418)
Test: cell-based or functional assay

Sequence of somatostatin receptor SSTR3 (P32745 whole entry): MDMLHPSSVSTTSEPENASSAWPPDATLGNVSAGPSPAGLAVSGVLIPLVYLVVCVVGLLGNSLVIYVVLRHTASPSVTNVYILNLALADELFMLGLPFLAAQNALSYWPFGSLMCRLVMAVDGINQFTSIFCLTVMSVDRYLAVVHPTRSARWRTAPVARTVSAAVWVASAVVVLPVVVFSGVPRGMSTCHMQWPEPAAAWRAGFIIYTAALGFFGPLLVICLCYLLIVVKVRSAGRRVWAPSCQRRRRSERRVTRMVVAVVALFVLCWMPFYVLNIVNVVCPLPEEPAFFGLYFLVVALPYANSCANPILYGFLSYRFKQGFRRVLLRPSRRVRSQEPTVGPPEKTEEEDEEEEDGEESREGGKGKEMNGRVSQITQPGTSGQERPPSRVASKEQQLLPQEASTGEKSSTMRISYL

Binder	IC50 (PathHunter β-Arrestin, antagonist mode) [nM]
H-[Phe(4-Cl)][dC]Y[dAph(2-(4-morpholinyl)ethyl)]KTC[dY]-NH2 (disulfide 2-7) [Compound 11: H-Cpa-cyclo[DCys-Tyr-D-4-(2-(4-morpholinyl)ethyl)Aph-Lys-Thr-Cys]-DTyr-NH2]	> 1000
B5	> 1000
H-[Phe(4-Cl)][dC]Y[dAph(Pro)]KTC[dY]-NH2 (disulfide 2-7) [Compound 10: H-Cpa-cyclo[DCys-Tyr-D-4-(Pro)Aph-Lys-Thr-Cys]-DTyr-NH2]	> 1000
H-[Phe(4-Cl)][dC]Y[dPhe(4-acetamidomethyl)]KTC[dY]-NH2 (disulfide 2-7) [Compound 6: H-Cpa-cyclo[DCys-Tyr-D-(4-acetamidomethyl)Phe-Lys-Thr-Cys]-DTyr-NH2]	> 1000
H-[Phe(4-Cl)][dC]Y[dPhe(4-aminomethyl)]KTC[dY]-NH2 (disulfide 2-7) [Compound 5: H-Cpa-cyclo[DCys-Tyr-D-(4-aminomethyl)Phe-Lys-Thr-Cys]-DTyr-NH2]	> 1000
B9	> 1000
